Data as given in patent US20230272056A1 (Merck Sharp & Dohme, published 2023).

Tests used:
[1] = target: T1, human LAP-TGFB2 Fc fusion (human); assay: SPR
T1 construct: also called human LAP-TGFβ2; LAP-TGFβ isoform 2
Protocol: (§1) A Series S CM4 sensor chip (GE Healthcare, catalog BR100534) was immobilized with an anti-human Fc capture antibody following the kit protocol (GE Healthcare, catalog BR100839) on a Biacore T200 instrument with 1× HBS-EP+ (Teknova, catalog H8022). […] Binding specificity between human LAP-TGFβ isoforms 2 and 3 and the tyrosine scanning double mutants were performed in 1× HEPES-buffered saline with EDTA and surfactant (HBS)-EP)+with 0.1 mg/mL BSA at 25° C. […] The binding data were double referenced by subtraction of signal from a reference (capture surface only) flow cell and the negative control 0 nM Fab injection. Binding rate constants were determined by fitting the data with a 1:1 binding model (GE Healthcare Biacore T200 Evaluation software 3.0).

[2] = target: T2, human LAP-TGFB3 Fc fusion (human); assay: SPR
T2 construct: also called human LAP-TGFβ3; LAP-TGFβ isoform 3
Protocol: as §1

[3] = target: T3, human LAP-TGFB1 Fc fusion (human); assay: SPR, antigen-Fc captured, Fab analyte
T3 construct: also called human LAP-TGFβ1-Fc; human LAP-TGFβ-Fc isoform 1

[4] = target: T3, human LAP-TGFB1 Fc fusion; assay: SPR pH 7.4, antigen captured on Fab 54BLH
Description: A Series S C1 sensor chip (Cytiva, catalog BR100535) was immobilized with low densities of high affinity Fab 54BLH on a Biacore T200 instrument with 1×HBS-EP+(Teknova, catalog H8022). This surface served as a monovalent capture surface for a low-density layer of heterodimer human LAP-TGFβ1 complex leaving the second binding site exposed for monovalent kinetic binding analysis with both mAbs and Fabs. Immobilized flow cell 1 served as the reference and flow cells 2, 3 and 4 were used to evaluate the binding interaction between human LAP-TGFβ1 and yeast display mutant mAbs and Fabs.
Approximately 15-25 RU of human LAP-TGFβ1-Fc was captured to the Fab capture surface followed by injection of 1:3 serially diluted Fabs and mAbs from 6 nM to 0.07 nM (Fabs: 54BLH, 55BLH, 60BLH, 63BLH, 64BLH-mAbs: 69BLH, 70BLH) and 1:3 serially diluted Fab and mAbs from 60 nM to 0.74 nM (Fabs: 59BLH, 66BLH, 67BLH—mAbs: 74BLH, 75BLH, 78BLH, 79BLH, 81BLH, 82BLH) including 0 nM. The binding data was double referenced by subtraction of signal from a reference flow cell and the 0 nM injections for evaluation of Fabs and mAbs respectively. Binding rate constants were calculated/determined by fitting the data with a 1:1 binding model (Cytiva Biacore T200 Evaluation software 3.0).

[5] = target: T3, human LAP-TGFB1 Fc fusion; assay: SPR pH 6.0, antigen captured on Fab 54BLH
Procedure, shortened: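 Human LAP-TGFβ1-Fc (~15-25 RU) captured on a low-density 54BLH Fab surface in HBS-EP+, leaving one epitope free for monovalent kinetics. Fabs/mAbs injected in 1:3 series, 6–0.07 nM or 60–0.74 nM plus 0 nM. Double-referenced; rate constants from 1:1 binding fit.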

[6] = target: T3, human LAP-TGFB1 Fc fusion; assay: SPR
[7] = target: T3, human LAP-TGFB1 Fc fusion; assay: SPR pH 7.4, antigen-Fc captured, Fab analyte
[8] = target: T3, human LAP-TGFB1 Fc fusion; assay: SPR pH 6.0, antigen-Fc captured, Fab analyte
Protocol: A Series S CM4 sensor chip (Cytiva, catalog BR100534) was immobilized with an anti-human Fc capture antibody following the kit protocol (Cytiva, catalog BR100839) on a Biacore T200 instrument with 1× HBS-EP+ (Teknova, catalog H8022). […] The binding data were double referenced by subtraction of signal from a reference (capture surface only) flow cell and the 0 nM Fab injection. Binding rate constants were determined by fitting the data with a 1:1 binding model (Cytiva Biacore T200 Evaluation software 3.0).

[9] = target: T1, human LAP-TGFB2 Fc fusion; assay: SPR pH 7.4
[10] = target: T2, human LAP-TGFB3 Fc fusion; assay: SPR pH 7.4
[11] = target: T3, human LAP-TGFB1 Fc fusion; assay: SPR pH 7.4, antigen-Fc captured, Fab analyte; remark: listed apart in the source

T1 sequence (chain, as listed by the source limits assumed): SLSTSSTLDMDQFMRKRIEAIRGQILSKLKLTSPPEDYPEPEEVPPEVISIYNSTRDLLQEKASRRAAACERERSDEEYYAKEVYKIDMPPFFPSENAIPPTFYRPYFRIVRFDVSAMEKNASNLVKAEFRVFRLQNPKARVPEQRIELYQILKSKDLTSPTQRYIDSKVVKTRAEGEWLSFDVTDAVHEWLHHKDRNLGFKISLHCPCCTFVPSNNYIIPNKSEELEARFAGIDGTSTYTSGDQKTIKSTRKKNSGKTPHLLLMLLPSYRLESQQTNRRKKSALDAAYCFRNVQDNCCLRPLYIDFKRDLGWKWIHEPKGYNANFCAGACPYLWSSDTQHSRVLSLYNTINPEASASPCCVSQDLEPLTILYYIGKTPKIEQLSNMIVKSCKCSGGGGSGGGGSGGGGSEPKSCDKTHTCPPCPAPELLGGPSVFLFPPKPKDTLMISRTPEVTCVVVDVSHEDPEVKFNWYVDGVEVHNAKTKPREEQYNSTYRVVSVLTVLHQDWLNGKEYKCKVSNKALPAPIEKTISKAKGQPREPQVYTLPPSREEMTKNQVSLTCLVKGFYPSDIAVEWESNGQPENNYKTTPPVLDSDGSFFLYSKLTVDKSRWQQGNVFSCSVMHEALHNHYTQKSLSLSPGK
T2 sequence (chain, as listed by the source limits assumed): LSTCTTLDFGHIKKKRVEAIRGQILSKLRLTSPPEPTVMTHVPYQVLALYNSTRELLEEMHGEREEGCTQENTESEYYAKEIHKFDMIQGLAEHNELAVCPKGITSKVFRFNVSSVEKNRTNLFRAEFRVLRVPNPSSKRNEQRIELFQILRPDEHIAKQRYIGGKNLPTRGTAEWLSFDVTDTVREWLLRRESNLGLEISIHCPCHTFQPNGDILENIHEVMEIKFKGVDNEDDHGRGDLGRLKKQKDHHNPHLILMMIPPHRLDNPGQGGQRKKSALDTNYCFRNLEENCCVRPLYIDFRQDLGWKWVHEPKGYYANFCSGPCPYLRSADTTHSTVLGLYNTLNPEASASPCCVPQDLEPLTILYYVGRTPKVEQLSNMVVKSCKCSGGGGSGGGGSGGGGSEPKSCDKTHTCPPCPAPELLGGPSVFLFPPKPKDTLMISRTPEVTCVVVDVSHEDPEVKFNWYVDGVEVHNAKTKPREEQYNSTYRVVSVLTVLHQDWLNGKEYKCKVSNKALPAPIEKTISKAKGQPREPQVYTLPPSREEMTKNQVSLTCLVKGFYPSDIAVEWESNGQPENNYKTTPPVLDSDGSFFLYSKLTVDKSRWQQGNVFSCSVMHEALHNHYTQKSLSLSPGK
T3 sequence (chain, as listed by the source limits assumed): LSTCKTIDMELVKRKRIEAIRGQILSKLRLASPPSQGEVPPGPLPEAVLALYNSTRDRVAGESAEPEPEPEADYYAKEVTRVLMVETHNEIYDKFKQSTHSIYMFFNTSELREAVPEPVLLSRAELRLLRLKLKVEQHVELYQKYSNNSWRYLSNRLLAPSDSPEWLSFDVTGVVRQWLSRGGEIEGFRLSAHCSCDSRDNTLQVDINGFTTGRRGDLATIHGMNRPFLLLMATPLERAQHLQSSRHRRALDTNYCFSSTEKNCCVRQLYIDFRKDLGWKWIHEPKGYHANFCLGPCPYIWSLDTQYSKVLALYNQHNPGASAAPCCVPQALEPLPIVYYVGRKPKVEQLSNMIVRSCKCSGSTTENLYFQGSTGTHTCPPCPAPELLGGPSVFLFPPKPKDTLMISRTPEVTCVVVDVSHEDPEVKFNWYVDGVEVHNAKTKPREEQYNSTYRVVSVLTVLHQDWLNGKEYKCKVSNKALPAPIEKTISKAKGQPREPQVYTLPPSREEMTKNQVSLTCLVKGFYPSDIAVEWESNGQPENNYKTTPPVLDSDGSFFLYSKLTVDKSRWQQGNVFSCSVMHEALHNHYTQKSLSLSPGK

Binder	binding result [1]	Kd [4] [nM]	koff [4] [s⁻¹]	kon [4] [M⁻¹ s⁻¹]	Kd [5] [nM]	koff [5] [s⁻¹]	kon [5] [M⁻¹ s⁻¹]	Fold change in KD from pH 7.4 to pH 6 [6] [fold]	Kd [7] [nM]	koff [7] [s⁻¹]	kon [7] [M⁻¹ s⁻¹]	Kd [8] [nM]	koff [8] [s⁻¹]	kon [8] [M⁻¹ s⁻¹]	binding result [9]	binding result [10]	Fold improvement in KD [11] [fold]	Kd [11] [nM]	koff [11] [s⁻¹]	kon [11] [M⁻¹ s⁻¹]	other results
VH W33Y/VL R53Y (91BJM) (Fab, V domains shown, also called VH33/VL53) VH: EVQLVQSGAEVKKPGASVKVSCKASGYTFTSYYMHWVRQAPGQGLEWMGRIDPQSGGIKYAQKFQGRATLTVDTSTSTAYMELSRLRSDDTAVYYCARWDYGGYFDVWGQGTLVTVSS VL: DIQMTQSPSSLSASVGDRVTITCRASQDITNYLNWYQQKPGKAVKLLIYYTSYLHSGVPSRFSGSGSGTDYTLTISSLQPEDFATYFCQQGDTLPWTFGQGTKLEIKR	no binding (tested: 1000 nM Fab)																				binding result [2]: no binding (tested: 1000 nM Fab); Fold improvement in KD [3]: 7 fold; Kd [3]: 11.8 nM; koff [3]: 0.0154 s⁻¹; kon [3]: 910000 M⁻¹ s⁻¹
VH W33Y/VL T93Y (92BJM) (Fab, V domains shown, also called VH33/VL93) VH: EVQLVQSGAEVKKPGASVKVSCKASGYTFTSYYMHWVRQAPGQGLEWMGRIDPQSGGIKYAQKFQGRATLTVDTSTSTAYMELSRLRSDDTAVYYCARWDYGGYFDVWGQGTLVTVSS VL: DIQMTQSPSSLSASVGDRVTITCRASQDITNYLNWYQQKPGKAVKLLIYYTSRLHSGVPSRFSGSGSGTDYTLTISSLQPEDFATYFCQQGDYLPWTFGQGTKLEIKR	no binding (tested: 1000 nM Fab)																				binding result [2]: no binding (tested: 1000 nM Fab); Fold improvement in KD [3]: 4 fold; Kd [3]: 20.6 nM; koff [3]: 0.0134 s⁻¹; kon [3]: 650000 M⁻¹ s⁻¹
67BLH (Fab, V domains shown, also called 19BLM Fab) VH: EVQLVQSGAEVKKPGASVKVSCKASGYTFTSYDMHWVRQAPGQGLEWMGRIDPQSGGIKYAQKFQGRATLTVDTSTSTAYMELSRLRSDDTAVYYCARYDHGGYFDVWGQGTLVTVSS VL: DIQMTQSPSSLSASVGDRVTITCRASQDIYNYLNWYQQKPGKAVKLLIYYTSYLETGVPSRFSGSGSGTDYTLTISSLQPEDFATYFCQQGDTLPWTFGQGTKLEIK		2.36	0.0155	6.69e+06	18.8	0.046	2.44e+06	1.7	0.961	0.00476	4.95e+06	1.59	0.0122	7.63e+06	no binding (tested: 1000 nM Fab)	no binding (tested: 1000 nM Fab)	61	0.961	0.00476	4.95e+06	
63BLH (Fab, V domains shown, also called 15BLM Fab; 015BLM Fab) VH: EVQLVQSGAEVKKPGASVKVSCKASGYTFTSYDMHWVRQAPGQGLEWMGRIDPQSGGIKYAQKFQGRATLTVDTSTSTAYMELSRLRSDDTAVYYCARWDYGGYFDVWGQGTLVTVSS VL: DIQMTQSPSSLSASVGDRVTITCRASQDIYNYLNWYQQKPGKAVKLLIYYTSRLETGVPSRFSGSGSGTDYTLTISSLQPEDFATYFCQQGDTLPWTFGQGTKLEIK		0.355	0.00341	9.61e+06	1.06	0.00796	7.51e+06	1.2	0.297	0.00198	6.79e+06	0.369	0.00277	7.51e+06	no binding (tested: 1000 nM Fab)	no binding (tested: 1000 nM Fab)	197	0.297	0.00198	6.79e+06	
60BLH (Fab, V domains shown, also called 12BLM Fab) VH: EVQLVQSGAEVKKPGASVKVSCKASGYTFTSYDMHWVRQAPGQGLEWMGRIDPQSGGVKYAQKFQGRATLTVDTSTSTAYMELSRLRSDDTAVYYCARWDYGGYFDVWGQGTLVTVSS VL: DIQMTQSPSSLSASVGDRVTITCRASQDIYNYLNWYQQKPGKAVKLLIYYTSVLETGVPSRFSGSGSGTDYTLTISSLQPEDFATYFCQQGDELPWTFGQGTKLEIK		0.036	0.000348	9.65e+06	0.296	0.00167	5.65e+06	2.8	0.024	0.000186	7.91e+06	0.067	0.000481	7.23e+06	no binding (tested: 1000 nM Fab)	no binding (tested: 1000 nM Fab)	2440	0.024	0.000186	7.91e+06	
VH W33Y/VL T30Y (90BJM) (Fab, V domains shown, also called VH33/VL30) VH: EVQLVQSGAEVKKPGASVKVSCKASGYTFTSYYMHWVRQAPGQGLEWMGRIDPQSGGIKYAQKFQGRATLTVDTSTSTAYMELSRLRSDDTAVYYCARWDYGGYFDVWGQGTLVTVSS VL: DIQMTQSPSSLSASVGDRVTITCRASQDIYNYLNWYQQKPGKAVKLLIYYTSRLHSGVPSRFSGSGSGTDYTLTISSLQPEDFATYFCQQGDTLPWTFGQGTKLEIKR	no binding (tested: 1000 nM Fab)																				binding result [2]: no binding (tested: 1000 nM Fab); Fold improvement in KD [3]: 20 fold; Kd [3]: 4 nM; koff [3]: 0.0075 s⁻¹; kon [3]: 1.89e+06 M⁻¹ s⁻¹
55BLH (Fab, V domains shown, also called 07BLM Fab) VH: EVQLVQSGAEVKKPGASVKVSCKASGYTFTSYDMHWVRQAPGQGLEWMGRIDPQSGGIRYAQKFQGRATLTVDTSTSTAYMELSRLRSDDTAVYYCARWDYGGYFDVWGQGTLVTVSS VL: DIQMTQSPSSLSASVGDRVTITCRASQDIYSYLNWYQQKPGKAVKLLIYYTSNLETGVPSRFSGSGSGTDYTLTISSLQPEDFATYFCQQGDTLPWTFGQGTKLEIK		0.125	0.00109	8.75e+06	0.335	0.00248	7.39e+06	1.8	0.059	0.000528	9.08e+06	0.105	0.000757	7.17e+06	no binding (tested: 1000 nM Fab)	no binding (tested: 1000 nM Fab)	992	0.059	0.000528	9.08e+06	
59BLH (Fab, V domains shown, also called 11BLM Fab) VH: EVQLVQSGAEVKKPGASVKVSCKASGYTFTSYDMHWVRQAPGQGLEWMGRIDPQSGGIRYAQKFQGRATLTVDTSTSTAYMELSRLRSDDTAVYYCARWDYGGYFDVWGQGTLVTVSS VL: DIQMTQSPSSLSASVGDRVTITCRASQDIYNYLNWYQQKPGKAVKLLIYYTSVLETGVPSRFSGSGSGTDYTLTISSLQPEDFATYFCQQGDTLPWTFGQGTKLEIK		0.044	0.000575	1.31e+07	0.179	0.00126	7.08e+06	0.7	0.066	0.00047	7.1e+06	0.049	0.000543	1.11e+07	no binding (tested: 1000 nM Fab)	no binding (tested: 1000 nM Fab)	887	0.066	0.00047	7.1e+06	
